Data on one molecule can be found in patent US20090241202A1 (MICROMET, published 2009).

This experiment has as its target T1, human EpCAM on Kato III gastric carcinoma cells (human, UniProt P16422 24-314).
T1 sequence (looked up): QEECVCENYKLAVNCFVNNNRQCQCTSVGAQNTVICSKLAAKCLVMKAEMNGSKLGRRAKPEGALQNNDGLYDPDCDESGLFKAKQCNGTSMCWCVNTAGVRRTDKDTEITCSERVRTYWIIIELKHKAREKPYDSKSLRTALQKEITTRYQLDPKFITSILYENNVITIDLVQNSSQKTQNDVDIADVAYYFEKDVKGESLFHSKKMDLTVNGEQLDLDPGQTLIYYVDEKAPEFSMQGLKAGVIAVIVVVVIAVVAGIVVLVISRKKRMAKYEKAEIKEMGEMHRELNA
The experiment is described as follows: cell-based or functional assay.

B1: domain-grafted Anti-EpCAM (antibody, mouse IgG2a, kappa, V domains shown)
VH: EVQLLESGGGVVQPGRSLRLSCAASGFTFSSYGMHWVRQAPGKGLEWVAVISYDGSNKYYADSVKGRFTISRDNSKNTLYLQMNSLRAEDTAVYYCAKDMGWGSGWRPYYYYGMDVWGQGTTVTVSS
VL: ELQMTQSPSSLSASVGDRVTITCRTSQSISSYLNWYQQKPGQPPKLLIYWASTRESGVPDRFSGSGSGTDFTLTISSLQPEDSATYYCQQSYDIPYTFGQGTKLEIKR
In the case of B1, the “EC50 of ADCC (lysis of Kato III target cells), unstimulated human PBMC as effector cells, E:T 20:1” value stood at 2.11 µg/mL and the “potency of ADCC against Anti-EpCAM, prestimulated murine NK cells as effector cells” value is 43.7 fold.
